Test results taken from US20130266566A1 (AbbVie / Abbott, published 2013).
Positions count from the first letter of the chain named. One block for each binder: values may come before it.

Columns and labels:
Test in all cases: cell-based or functional assay
[1] = target: T1, active human PAI-1, recombinant, wild-type, non-glycosylated (E. coli) (human, UniProt P05121 24-402)
cynomolgus PAI-1 = cynomolgus PAI-1 (cynomolgus, UniProt P05121 24-402 (human entry), limits assumed)
rat PAI-1 [2] = target: T2, rat PAI-1 (rat, UniProt P20961 24-402)
T2 sequence: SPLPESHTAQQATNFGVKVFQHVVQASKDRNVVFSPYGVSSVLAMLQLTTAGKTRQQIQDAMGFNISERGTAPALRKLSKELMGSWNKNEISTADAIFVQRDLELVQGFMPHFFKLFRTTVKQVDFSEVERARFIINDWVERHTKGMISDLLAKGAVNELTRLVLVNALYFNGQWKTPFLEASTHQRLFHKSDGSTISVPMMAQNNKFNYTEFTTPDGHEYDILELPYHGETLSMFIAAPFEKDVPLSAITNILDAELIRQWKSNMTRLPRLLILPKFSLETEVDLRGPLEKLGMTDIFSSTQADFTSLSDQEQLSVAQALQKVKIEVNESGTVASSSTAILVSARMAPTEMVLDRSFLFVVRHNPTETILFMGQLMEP

mouse PAI-1 [3] = target: T3, mouse PAI-1 (mouse, UniProt P22777 24-401)
T3 sequence: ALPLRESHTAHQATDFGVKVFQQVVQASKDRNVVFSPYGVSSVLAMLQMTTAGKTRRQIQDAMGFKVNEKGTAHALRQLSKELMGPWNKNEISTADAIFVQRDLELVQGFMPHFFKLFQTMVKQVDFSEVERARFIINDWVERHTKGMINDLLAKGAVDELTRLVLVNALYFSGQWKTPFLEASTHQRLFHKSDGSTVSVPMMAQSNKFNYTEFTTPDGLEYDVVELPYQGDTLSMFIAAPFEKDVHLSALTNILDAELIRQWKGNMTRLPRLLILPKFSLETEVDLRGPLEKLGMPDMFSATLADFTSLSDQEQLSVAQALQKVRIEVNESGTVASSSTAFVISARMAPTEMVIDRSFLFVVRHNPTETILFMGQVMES

[4] = target: T1, active human PAI-1, recombinant, …; remark: listed apart in the source
rat PAI-1 [5] = target: T2, rat PAI-1; remark: listed apart in the source
mouse PAI-1 [6] = target: T3, mouse PAI-1; remark: listed apart in the source

- Chromogenic (IC50 in nM) cyno (cynomolgus PAI-1): 0.8 nM
- Chromogenic (IC50 in nM) rat (rat PAI-1 [2]): 23.1 nM
- HT-1080 Exo PAI-1 (IC50 in nM) human [4]: 28 nM
- HT-1080 Exo PAI-1 (IC50 in nM) rat (rat PAI-1 [5]): 52 nM
- HT-1080 Exo PAI-1 (IC50 in nM) mouse (mouse PAI-1 [6]): 22 nM
B2: Antibody 14 scFv (scFv)
chain: QVQLQQSGAEVKKPGSSVKVSCKASGGTFSSYAISWVRQAPGQGLEWMGGIIPTFGTANYAQKFQGRVTITADESTSTAYMELSGLRSEDTAVYYCAREKRQWLEGHFDYWGRGTLVTVSSDIQMTQSPSFLSASIGDRVTITCRASEGIYHNLAWYQQKPGKAPKLLIYRASSLASGAPSRFSGSGSGTDFTFTISSLQPDDFATYYCQQYSNYPLTFGGGTKLEIK

- Chromogenic (IC50 in nM) cyno (cynomolgus PAI-1): 1.3 nM
- Chromogenic (IC50 in nM) mouse (mouse PAI-1 [3]): 4.9 nM
- HT-1080 Exo PAI-1 (IC50 in nM) human [4]: 19.1 nM
- HT-1080 Exo PAI-1 (IC50 in nM) rat (rat PAI-1 [5]): 42.4 nM
- HT-1080 Exo PAI-1 (IC50 in nM) mouse (mouse PAI-1 [6]): 18.1 nM
B3: Antibody 20 scFv (scFv)
chain: B2 chain with G85S, F131T, I136V, N153E, A179V, G187R, D191E, F194L, N214D, L225V

- Chromogenic (IC50 in nM) human [1]: 7.2 nM
- Chromogenic (IC50 in nM) cyno (cynomolgus PAI-1): 2.2 nM
- Chromogenic IC50 ratio cyno/human (cynomolgus PAI-1): 0.3 fold
- Chromogenic (IC50 in nM) rat (rat PAI-1 [2]): 64.2 nM
- Chromogenic IC50 ratio rat/human (rat PAI-1 [2]): 8.9 fold
- Chromogenic (IC50 in nM) mouse (mouse PAI-1 [3]): 66.9 nM
- Chromogenic IC50 ratio mouse/human (mouse PAI-1 [3]): 9.3 fold
- HT-1080 Exo PAI-1 (IC50 in nM) human [4]: 36 nM
- HT-1080 Exo PAI-1 (IC50 in nM) rat (rat PAI-1 [5]): 57 nM
- HT-1080 Exo PAI-1 (IC50 in nM) mouse (mouse PAI-1 [6]): 37 nM
B4: Antibody 15 scFv (scFv)
chain: B2 chain with L116P, T126A, F194L, K228R

- Chromogenic (IC50 in nM) cyno (cynomolgus PAI-1): 2.2 nM
- Chromogenic (IC50 in nM) rat (rat PAI-1 [2]): 49.8 nM
- HT-1080 Exo PAI-1 (IC50 in nM) human [4]: 18.8 nM
- HT-1080 Exo PAI-1 (IC50 in nM) rat (rat PAI-1 [5]): 33.8 nM
- HT-1080 Exo PAI-1 (IC50 in nM) mouse (mouse PAI-1 [6]): 16.4 nM
B5: Antibody 27 scFv (scFv)
chain: B2 chain with T28A, L116P, F194L

- Chromogenic (IC50 in nM) cyno (cynomolgus PAI-1): 0.7 nM
- Chromogenic (IC50 in nM) rat (rat PAI-1 [2]): 29.7 nM
- HT-1080 Exo PAI-1 (IC50 in nM) human [4]: 23 nM
- HT-1080 Exo PAI-1 (IC50 in nM) rat (rat PAI-1 [5]): 52.7 nM
- HT-1080 Exo PAI-1 (IC50 in nM) mouse (mouse PAI-1 [6]): 21 nM
B8: Antibody 09 scFv (scFv)
chain: B2 chain with T54A, G56D, L116P, R145Q, F194L

- Chromogenic (IC50 in nM) human [1]: 4 nM
- Chromogenic (IC50 in nM) cyno (cynomolgus PAI-1): 1.2 nM
- Chromogenic IC50 ratio cyno/human (cynomolgus PAI-1): 0.3 fold
- Chromogenic (IC50 in nM) rat (rat PAI-1 [2]): 245 nM
- Chromogenic IC50 ratio rat/human (rat PAI-1 [2]): 61.4 fold
- Chromogenic (IC50 in nM) mouse (mouse PAI-1 [3]): 211 nM
- Chromogenic IC50 ratio mouse/human (mouse PAI-1 [3]): 52.9 fold
B9: Antibody 26 scFv (scFv)
chain: B2 chain with S16T, T54I, G85S, L116P, N153T, F194L

- Chromogenic (IC50 in nM) human [1]: 2.2 nM
- Chromogenic (IC50 in nM) cyno (cynomolgus PAI-1): 0.5 nM
- Chromogenic IC50 ratio cyno/human (cynomolgus PAI-1): 0.2 fold
- Chromogenic (IC50 in nM) rat (rat PAI-1 [2]): 296 nM
- Chromogenic IC50 ratio rat/human (rat PAI-1 [2]): 132 fold
- Chromogenic (IC50 in nM) mouse (mouse PAI-1 [3]): 334 nM
- Chromogenic IC50 ratio mouse/human (mouse PAI-1 [3]): 149 fold
B10: Antibody 10 scFv (scFv)
chain: B2 chain with G85S, L116P, T141A, N153S, F194L, K224R

- Chromogenic (IC50 in nM) human [1]: 187 nM
- Chromogenic (IC50 in nM) cyno (cynomolgus PAI-1): 117 nM
- Chromogenic IC50 ratio cyno/human (cynomolgus PAI-1): 0.6 fold
- Chromogenic (IC50 in nM) rat (rat PAI-1 [2]): 91 nM
- Chromogenic IC50 ratio rat/human (rat PAI-1 [2]): 0.5 fold
- Chromogenic (IC50 in nM) mouse (mouse PAI-1 [3]): 143 nM
- Chromogenic IC50 ratio mouse/human (mouse PAI-1 [3]): 0.8 fold
B12: Antibody 07 scFv (scFv)
chain: B2 chain with M48V, L116P, T126A, N153E, F194L

Further lines, the binder ahead of its results:

B1: Antibody 04 scFv (scFv)
chain: QVRLQQSGAEVKKPGSSVKVSCKASGGTFSSYAISWVRQAPGQGLEWMGGIIPTFGTANYAQKFRGRVTITANESTSTAYMELSGLRSEDTAVYYCAREKRQWLEGRFDYWGRGTLVTVSSDIQMTQSPSFLSASIGDRITITCRASEGIYHSLAWYQQKPGKAPKLLIHRATSLASGTPSRFGGSGSGTDFALTISSLQPDDFATYYCQQYSNYPLTFGGGTKLEIK
- Chromogenic (IC50 in nM) human [1]: 6.6 nM
- Chromogenic (IC50 in nM) cyno (cynomolgus PAI-1): 2.1 nM
- Chromogenic IC50 ratio cyno/human (cynomolgus PAI-1): 0.3 fold
- Chromogenic (IC50 in nM) rat (rat PAI-1 [2]): 340 nM
- Chromogenic IC50 ratio rat/human (rat PAI-1 [2]): 51.4 fold
- Chromogenic (IC50 in nM) mouse (mouse PAI-1 [3]): 264 nM
- Chromogenic IC50 ratio mouse/human (mouse PAI-1 [3]): 39.9 fold

B6: Antibody 06 scFv (scFv)
chain: B2 chain with L116P, N153E, F194L, G221R
- Chromogenic (IC50 in nM) human [1]: 74.6 nM
- Chromogenic (IC50 in nM) cyno (cynomolgus PAI-1): 31.6 nM
- Chromogenic IC50 ratio cyno/human (cynomolgus PAI-1): 0.4 fold
- Chromogenic (IC50 in nM) rat (rat PAI-1 [2]): 37.1 nM
- Chromogenic IC50 ratio rat/human (rat PAI-1 [2]): 0.5 fold
- Chromogenic (IC50 in nM) mouse (mouse PAI-1 [3]): 48.2 nM
- Chromogenic IC50 ratio mouse/human (mouse PAI-1 [3]): 0.6 fold

B7: Antibody 05 scFv (scFv)
chain: B2 chain with G56S, Q65R, L116P, N153Q, F194L
- Chromogenic (IC50 in nM) human [1]: 5 nM
- Chromogenic (IC50 in nM) cyno (cynomolgus PAI-1): 0.5 nM
- Chromogenic IC50 ratio cyno/human (cynomolgus PAI-1): 0.1 fold
- Chromogenic (IC50 in nM) rat (rat PAI-1 [2]): 860 nM
- Chromogenic IC50 ratio rat/human (rat PAI-1 [2]): 172 fold
- Chromogenic (IC50 in nM) mouse (mouse PAI-1 [3]): 718 nM
- Chromogenic IC50 ratio mouse/human (mouse PAI-1 [3]): 144 fold

B11: Antibody 03 scFv (scFv)
chain: B2 chain with L116P, H152R, N153S, R171K, F194L, S198G
- Chromogenic (IC50 in nM) human [1]: 1.8 nM
- Chromogenic (IC50 in nM) cyno (cynomolgus PAI-1): 0.1 nM
- Chromogenic IC50 ratio cyno/human (cynomolgus PAI-1): 0.1 fold
- Chromogenic (IC50 in nM) rat (rat PAI-1 [2]): 297 nM
- Chromogenic IC50 ratio rat/human (rat PAI-1 [2]): 165 fold
- Chromogenic (IC50 in nM) mouse (mouse PAI-1 [3]): 54.9 nM
- Chromogenic IC50 ratio mouse/human (mouse PAI-1 [3]): 30.5 fold

B13: Antibody 01 scFv (scFv)
chain: QVQLVQSGAEVKKPGSSVKVSCKASGGTFSSYAISWVRQAPGQGLEWMGGIIPIFGTANYAQKFQGRVTITADESTSTAYMELSSLRSEDTAVYYCAREKRQWLEGHFDYWGRGTLVTVSSDIQMTQSPSTLSASVGDRVTITCRASEGIYRSLAWYQQKPGKAPKLLIYKASSLASGVPSRFSGSGSGTEFTLTISSLQPDDFATYYCQQYSNYPLTFGGGTKVEIK
- Chromogenic (IC50 in nM) human [1]: 3.4 nM
- Chromogenic (IC50 in nM) cyno (cynomolgus PAI-1): 1.2 nM
- Chromogenic IC50 ratio cyno/human (cynomolgus PAI-1): 0.4 fold
- Chromogenic (IC50 in nM) rat (rat PAI-1 [2]): 208 nM
- Chromogenic IC50 ratio rat/human (rat PAI-1 [2]): 60.5 fold
- Chromogenic (IC50 in nM) mouse (mouse PAI-1 [3]): 28.3 nM
- Chromogenic IC50 ratio mouse/human (mouse PAI-1 [3]): 8.2 fold
- HT-1080 Exo PAI-1 (IC50 in nM) human [4]: 23.9 nM
- HT-1080 Exo PAI-1 (IC50 in nM) mouse (mouse PAI-1 [6]): 34.5 nM

B14: Antibody 02 scFv (scFv)
chain: B13 chain with I54T, R152H, N214D
- Chromogenic (IC50 in nM) human [1]: 0.6 nM
- Chromogenic (IC50 in nM) cyno (cynomolgus PAI-1): 1.1 nM
- Chromogenic IC50 ratio cyno/human (cynomolgus PAI-1): 1.8 fold
- Chromogenic (IC50 in nM) rat (rat PAI-1 [2]): 530 nM
- Chromogenic IC50 ratio rat/human (rat PAI-1 [2]): 891 fold
- Chromogenic (IC50 in nM) mouse (mouse PAI-1 [3]): 553 nM
- Chromogenic IC50 ratio mouse/human (mouse PAI-1 [3]): 929 fold
